Assay results: PMC8389195, “Demyristoylation of the Cytoplasmic Redox Protein Trx-h2 Is Critical for Inducing a Rapid Cold Stress Response in Plants”

Target: MBP-CBF1 (Arabidopsis thaliana, UniProt P93835 1-213)
Experiment: EMSA; NADPH, Trx reductase, Trx-h2 (reduced CBF1); EMSA kit (Thermo Fisher), poly(dI-dC) binding buffer, NADPH/Trx reductase/Trx-h2 system, 6% polyacrylamide gel; proteins dialyzed in 20 mM HEPES-NaOH pH 8.0; salt and temperature not stated
Conditions: protein: recombinant; tags: MBP (N-terminal, pMAL vector); blunt

MBP-CBF1, sequence (P93835 whole entry): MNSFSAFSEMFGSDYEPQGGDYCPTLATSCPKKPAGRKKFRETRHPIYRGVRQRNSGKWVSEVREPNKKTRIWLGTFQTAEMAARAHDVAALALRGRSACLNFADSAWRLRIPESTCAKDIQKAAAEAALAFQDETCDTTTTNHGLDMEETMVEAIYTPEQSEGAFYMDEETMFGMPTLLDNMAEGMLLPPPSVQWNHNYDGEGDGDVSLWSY

B1: COR15a promoter CRT/DRE probe (dsDNA)
DNA 1: ATTTCATGGCCGACCTGCTTTTT
DNA 2: AAAAAGCAGGTCGGCCATGAAAT
binding result: binds
